Laboratory results as given in the supplement of paper PMC10567573.

B1: WDFY2 (parent)
chain: FWNFKQMWDSKKIGLRQHHCRKCG

Variants of: B1
Assay: protein stability index of a GFP-peptide fusion (GPS, HEK-293T) (PSI 1-6); higher = more stable
Conditions: c terminus: a fixed tail appended
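Also: lentivirally expressed fusions sorted by FACS into six bins by GFP to DsRed ratio, PSI derived from sequencing read proportions per bin multiplied by bin number.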

Variant	protein stability index
FWNFKQMWDSKKIGLRQHHCRHCG [K22H]	1.23
FWNFKQMWDSKKIGLRQHHCRMCG [K22M]	1.8
FWNFKQMWDSKKIGLRQHHCRICG [K22I]	4.49
FWNFKQMWDSKKIGLRQHHCRECG [K22E]	1.65
FWNFKQMWDSKKIGLRQHHCRLCG [K22L]	1.47
FWNFKQMWDSKKIGLRQHHCRQCG [K22Q]	2.21
FWNFKQMWDSKKIGLRQHHCRVCG [K22V]	1.7
FWNFKQMWDSKKIGLRQHHCRDCG [K22D]	1.79
FWNDKQMWDSKKIGLRQHHCRKCG [F4D]	2.27
FWNCKQMWDSKKIGLRQHHCRKCG [F4C]	2.36
FWNLKQMWDSKKIGLRQHHCRKCG [F4L]	1.94
FWNEKQMWDSKKIGLRQHHCRKCG [F4E]	2.39
FWNTKQMWDSKKIGLRQHHCRKCG [F4T]	2.3
FWNHKQMWDSKKIGLRQHHCRKCG [F4H]	2.47
FWNFKQMWDSKKIVLRQHHCRKCG [G14V]	2
FWNFKQMWDSKKISLRQHHCRKCG [G14S]	3.27
FWNFKQMWDSKKIKLRQHHCRKCG [G14K]	2.14
FWNFKQMWDSKKINLRQHHCRKCG [G14N]	1.95
FWNFKQMWDSKKITLRQHHCRKCG [G14T]	2.4
FWNFKQMWDSKKIALRQHHCRKCG [G14A]	1.66
FWNFKQMWDSKKIQLRQHHCRKCG [G14Q]	1.32
FWNFKQMWDSKKIILRQHHCRKCG [G14I]	1.48
FWNFKQMWDSKKIGLRQHHCRKTG [C23T]	2.44
FWNFKQMWDSKKIGLRQHHCRKYG [C23Y]	1.92

Variant	protein stability index
FWNFKQMWDSKKIGLRQHHCRKKG [C23K]	2.38
FWNFKQMWDSKKIGLRQHHCRKWG [C23W]	2.45
FWNFKQMWDSKKIGLRQHHCRKNG [C23N]	2.21
FWNFKQMWDSKKIGLRQHHCRKPG [C23P]	2.16
FWNFKQMWDSKKIGLRQHHCRKDG [C23D]	1.89
FWNFKQMWDSKKIGLRQHHCRKHG [C23H]	2.24
FWNFKQMWDSKKIGLRQHHCRKVG [C23V]	1.79
FWNFKQMWDSKKIGSRQHHCRKCG [L15S]	2.25
FWNFKQMWDSKKIGRRQHHCRKCG [L15R]	2.61
FWNFKQMWDSKKIGPRQHHCRKCG [L15P]	2.68
FWNFKQMWDSKKIGQRQHHCRKCG [L15Q]	1.95
FWNFKQMWDSKKIGNRQHHCRKCG [L15N]	2.11
FWNFKQMWDSKKIGARQHHCRKCG [L15A]	2.01
FWNFKQMWDSKKIGTRQHHCRKCG [L15T]	2.01
FWNFKQMWDSKKIGMRQHHCRKCG [L15M]	1.97
FWNFKQRWDSKKIGLRQHHCRKCG [M7R]	2.33
FWNFKQEWDSKKIGLRQHHCRKCG [M7E]	2.82
FWNFKQFWDSKKIGLRQHHCRKCG [M7F]	2.09
FWNFKQPWDSKKIGLRQHHCRKCG [M7P]	2.06
FWNFKQKWDSKKIGLRQHHCRKCG [M7K]	1.69
FWNFKQYWDSKKIGLRQHHCRKCG [M7Y]	2.34
FWNFKQSWDSKKIGLRQHHCRKCG [M7S]	2.57
FWNFKQIWDSKKIGLRQHHCRKCG [M7I]	1.92
FWNFKQVWDSKKIGLRQHHCRKCG [M7V]	1.71

Variant	protein stability index
FWNFKQMWDSKFIGLRQHHCRKCG [K12F]	1.84
FWNFKQMWDSKQIGLRQHHCRKCG [K12Q]	2.1
FWNFKQMWDSKPIGLRQHHCRKCG [K12P]	2.03
FWNFKQMWDSKRIGLRQHHCRKCG [K12R]	1.71
FWNFKQMWDSKHIGLRQHHCRKCG [K12H]	2.01
FWNFKQMWDSKLIGLRQHHCRKCG [K12L]	1.89
FWNFKQMWDSKYIGLRQHHCRKCG [K12Y]	1.53
FWNFKQMWDSKIIGLRQHHCRKCG [K12I]	2.06
FWNFKQMWDSKSIGLRQHHCRKCG [K12S]	2.62
FWNFKQMWDSKKIGLRQHHCEKCG [R21E]	2.02
FWNFKQMWDSKKIGLRQHHCGKCG [R21G]	1.85
FWNFKQMWDSKKIGLRQHHCHKCG [R21H]	2.66
FWNFKQMWDSKKIGLRQHHCNKCG [R21N]	2.46
FWNFKQMWDSKKIGLRQHHCMKCG [R21M]	2.21
FWNFKQMWDSKKIGLRQHHCPKCG [R21P]	1.53
FWNFKQMWDSKKIGLRQHHCLKCG [R21L]	1.1
FWNFKQMWDSKKIGLRQHHCSKCG [R21S]	1.72
FWNFKQMWDSKKIGLRQHHCTKCG [R21T]	1.71
FWFFKQMWDSKKIGLRQHHCRKCG [N3F]	2.05
FWWFKQMWDSKKIGLRQHHCRKCG [N3W]	1.65
FWEFKQMWDSKKIGLRQHHCRKCG [N3E]	2.12
FWRFKQMWDSKKIGLRQHHCRKCG [N3R]	1.42
FWPFKQMWDSKKIGLRQHHCRKCG [N3P]	1.85
FWKFKQMWDSKKIGLRQHHCRKCG [N3K]	1.7

Variant	protein stability index
FWDFKQMWDSKKIGLRQHHCRKCG [N3D]	2.05
FWMFKQMWDSKKIGLRQHHCRKCG [N3M]	1.35
FWSFKQMWDSKKIGLRQHHCRKCG [N3S]	3.29
FWCFKQMWDSKKIGLRQHHCRKCG [N3C]	2.08
FWYFKQMWDSKKIGLRQHHCRKCG [N3Y]	1.91
FWNFKQMWDSKKTGLRQHHCRKCG [I13T]	1.66
FWNFKQMWDSKKYGLRQHHCRKCG [I13Y]	2.25
FWNFKQMWDSKKQGLRQHHCRKCG [I13Q]	1.73
FWNFKQMWDSKKNGLRQHHCRKCG [I13N]	2.42
FWNFKQMWDSKKDGLRQHHCRKCG [I13D]	2.55
FWNFKQMWDSKKMGLRQHHCRKCG [I13M]	2.29
FWNFKQMWDSKKAGLRQHHCRKCG [I13A]	2.52
FWNFKQMWDSKKEGLRQHHCRKCG [I13E]	2.28
FWNFKQMWDSKKFGLRQHHCRKCG [I13F]	2.15
FWNFKQMWDSKKIGLRRHHCRKCG [Q17R]	2
FWNFKQMWDSKKIGLRVHHCRKCG [Q17V]	2.13
FWNFKQMWDSKKIGLRNHHCRKCG [Q17N]	1.35
FWNFKQMWDSKKIGLRTHHCRKCG [Q17T]	1.2
FWNFKQMWDSKKIGLRCHHCRKCG [Q17C]	1.61
FWNFKQMWDSKKIGLREHHCRKCG [Q17E]	1.53
FWNFKQMWDSKKIGLRSHHCRKCG [Q17S]	1.99
FWNFKQMWDSKKIGLRGHHCRKCG [Q17G]	1.49
FWNFKQMWDSKKIGLRMHHCRKCG [Q17M]	1.91
FWNFKQMWDSKKIGLRQHHLRKCG [C20L]	2.09

Variant	protein stability index
FWNFKQMWDSKKIGLRQHHMRKCG [C20M]	3.04
FWNFKQMWDSKKIGLRQHHGRKCG [C20G]	2.91
FWNFKQMWDSKKIGLRQHHVRKCG [C20V]	1.73
FWNFKQMWDSKKIGLRQHHARKCG [C20A]	1.82
FWNFKQMWDSKKIGLRQHHIRKCG [C20I]	2.01
FWNFFQMWDSKKIGLRQHHCRKCG [K5F]	1.38
FWNFNQMWDSKKIGLRQHHCRKCG [K5N]	1.76
FWNFIQMWDSKKIGLRQHHCRKCG [K5I]	1.7
FWNFLQMWDSKKIGLRQHHCRKCG [K5L]	1.83
FWNFSQMWDSKKIGLRQHHCRKCG [K5S]	1.52
FWNFDQMWDSKKIGLRQHHCRKCG [K5D]	1.96
FWNFPQMWDSKKIGLRQHHCRKCG [K5P]	1.98
FWNFEQMWDSKKIGLRQHHCRKCG [K5E]	2.22
FWNFAQMWDSKKIGLRQHHCRKCG [K5A]	1.81
FWNFRQMWDSKKIGLRQHHCRKCG [K5R]	1.24
FWNFKQMWDVKKIGLRQHHCRKCG [S10V]	1.78
FWNFKQMWDQKKIGLRQHHCRKCG [S10Q]	2.65
FWNFKQMWDDKKIGLRQHHCRKCG [S10D]	1.75
FWNFKQMWDEKKIGLRQHHCRKCG [S10E]	1.72
FWNFKQMWDTKKIGLRQHHCRKCG [S10T]	1.73
FWNFKQMWDHKKIGLRQHHCRKCG [S10H]	2.55
FWNFKQMWDRKKIGLRQHHCRKCG [S10R]	1.53
FWNFKQMWDFKKIGLRQHHCRKCG [S10F]	1.72
FWNFKIMWDSKKIGLRQHHCRKCG [Q6I]	1.68

Variant	protein stability index
FWNFKDMWDSKKIGLRQHHCRKCG [Q6D]	1.91
FWNFKYMWDSKKIGLRQHHCRKCG [Q6Y]	1.6
FWNFKGMWDSKKIGLRQHHCRKCG [Q6G]	2.79
FWNFKEMWDSKKIGLRQHHCRKCG [Q6E]	1.89
FWNFKLMWDSKKIGLRQHHCRKCG [Q6L]	2.03
FWNFKTMWDSKKIGLRQHHCRKCG [Q6T]	1.82
FNNFKQMWDSKKIGLRQHHCRKCG [W2N]	2.63
FINFKQMWDSKKIGLRQHHCRKCG [W2I]	2.23
FENFKQMWDSKKIGLRQHHCRKCG [W2E]	3.29
FKNFKQMWDSKKIGLRQHHCRKCG [W2K]	2.04
FSNFKQMWDSKKIGLRQHHCRKCG [W2S]	1.42
FRNFKQMWDSKKIGLRQHHCRKCG [W2R]	2.61
FWNFKQMWTSKKIGLRQHHCRKCG [D9T]	1
FWNFKQMWQSKKIGLRQHHCRKCG [D9Q]	1.84
FWNFKQMWWSKKIGLRQHHCRKCG [D9W]	1.81
FWNFKQMWFSKKIGLRQHHCRKCG [D9F]	1.54
FWNFKQMWKSKKIGLRQHHCRKCG [D9K]	2.05
FWNFKQMWCSKKIGLRQHHCRKCG [D9C]	1.2
FWNFKQMWGSKKIGLRQHHCRKCG [D9G]	1.77
FWNFKQMWDSKKIGLRQHHCRKCI [G24I]	1.51
FWNFKQMWDSKKIGLRQHHCRKCH [G24H]	1.71
FWNFKQMWDSKKIGLRQHHCRKCN [G24N]	1.67
FWNFKQMWDSKKIGLRQHHCRKCQ [G24Q]	1.95
FWNFKQMWDSKKIGLRQHHCRKCR [G24R]	2.3

Variant	protein stability index
FWNFKQMWDSKKIGLRQHHCRKCF [G24F]	1.23
FWNFKQMWDSKKIGLRQHHCRKCW [G24W]	1.68
FWNFKQMWDSKKIGLRQHLCRKCG [H19L]	2.02
FWNFKQMWDSKKIGLRQHRCRKCG [H19R]	2.39
FWNFKQMWDSKKIGLRQHQCRKCG [H19Q]	1.87
FWNFKQMWDSKKIGLRQHPCRKCG [H19P]	2.17
FWNFKQMWDSKKIGLRQHYCRKCG [H19Y]	1.76
FWNFKQMWDSKKIGLRQHGCRKCG [H19G]	2.38
FWNFKQMWDSKKIGLRQHFCRKCG [H19F]	1.79
YWNFKQMWDSKKIGLRQHHCRKCG [F1Y]	1.52
RWNFKQMWDSKKIGLRQHHCRKCG [F1R]	2.01
WWNFKQMWDSKKIGLRQHHCRKCG [F1W]	2.25
QWNFKQMWDSKKIGLRQHHCRKCG [F1Q]	2.11
VWNFKQMWDSKKIGLRQHHCRKCG [F1V]	2.86
FWNFKQMWDSKKIGLKQHHCRKCG [R16K]	1.53
FWNFKQMWDSKKIGLNQHHCRKCG [R16N]	1.84
FWNFKQMWDSKKIGLQQHHCRKCG [R16Q]	2.66
FWNFKQMWDSKKIGLYQHHCRKCG [R16Y]	1.85
FWNFKQMWDSKKIGLHQHHCRKCG [R16H]	2.06
FWNFKQMWDSKKIGLDQHHCRKCG [R16D]	2.06
FWNFKQMWDSKKIGLRQWHCRKCG [H18W]	2.18
FWNFKQMWDSKKIGLRQIHCRKCG [H18I]	1.8
FWNFKQMWDSKKIGLRQMHCRKCG [H18M]	1.38
FWNFKQMWDSKKIGLRQPHCRKCG [H18P]	2.05

Variant	protein stability index
FWNFKQMWDSKKIGLRQEHCRKCG [H18E]	2.25
FWNFKQMWDSTKIGLRQHHCRKCG [K11T]	1.76
FWNFKQMWDSEKIGLRQHHCRKCG [K11E]	2.61
FWNFKQMWDSVKIGLRQHHCRKCG [K11V]	1.99
FWNFKQMWDSFKIGLRQHHCRKCG [K11F]	2.48
FWNFKQMWDSNKIGLRQHHCRKCG [K11N]	2.7
FWNFKQMWDSGKIGLRQHHCRKCG [K11G]	2.44
FWNFKQMWDSCKIGLRQHHCRKCG [K11C]	2.65
FWNFKQMWDSQKIGLRQHHCRKCG [K11Q]	2.54
FWNFKQMWDSRKIGLRQHHCRKCG [K11R]	1.74
FWNFKQMWDSPKIGLRQHHCRKCG [K11P]	2.19
FWNFKQMWDSMKIGLRQHHCRKCG [K11M]	1.83
FWNFKQMPDSKKIGLRQHHCRKCG [W8P]	2.16
FWNFKQMLDSKKIGLRQHHCRKCG [W8L]	2.59
FWNFKQMDDSKKIGLRQHHCRKCG [W8D]	3
FWNFKQMQDSKKIGLRQHHCRKCG [W8Q]	2.39
FWNFKQMHDSKKIGLRQHHCRKCG [W8H]	2.79
FWNFKQMVDSKKIGLRQHHCRKCG [W8V]	2.22
FWNFKQMEDSKKIGLRQHHCRKCG [W8E]	3.3
FWNFKQMCDSKKIGLRQHHCRKCG [W8C]	2.34
